Experiment [1] concerns the target T1, Human GPA33 (Novoprotein), recombinant protein immobilized on CM5 chips (human, UniProt Q99795 22-235).
T1 construct: also called GPA33 recombinant protein; Human Glycoprotein A33
T1 sequence: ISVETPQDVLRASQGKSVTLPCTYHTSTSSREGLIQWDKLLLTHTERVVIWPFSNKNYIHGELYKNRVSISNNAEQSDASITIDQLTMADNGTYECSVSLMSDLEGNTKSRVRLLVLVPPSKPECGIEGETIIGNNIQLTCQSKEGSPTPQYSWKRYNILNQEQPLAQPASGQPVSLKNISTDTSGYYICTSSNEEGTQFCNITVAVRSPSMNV
Nature of the experiment: SPR, KD of the parental huA33-BsAb over KD of the clone. On the procedure: (§1) SPR analysis. Human GPA33 (Novoprotein, Summit, N.J.) was immobilized on CM5 chips. Five concentrations of 2-fold serially diluted huA33 IgG1 or huA33-BsAbs (starting at 20 nM) were flowed over the chip using a Biacore™ T100 system (GE Healthcare, Chicago, Ill.). Binding kinetics of huA33 were measured at 25° C. and binding kinetics of huA33-BsAbs were measured at both 25° C. and 37° C. The sensorgrams were fitted with 1:1 binding model for both to derive kinetic parameters.
On the technique in general: In SPR one partner is held on a chip, and binding of the other changes the refractive index at the surface.

The target of experiment [2] is T1, Human GPA33 (Novoprotein), recombinant …. Kind of experiment: SPR, GPA33 immobilized on CM5 chip, clone in huA33-BsAb format; temperature not given for this table; the KD column head prints no unit.
The target is the same in experiment [3]. Nature of the experiment: SPR (Biacore T100), GPA33 recombinant protein immobilized on CM5 chip, IgG1 flowed over, 25 °C, 1:1 binding model. On the procedure:
as §1

One may read the Kd as a measure of binding affinity in units of concentration. One may read the koff as the rate constant with which the complex falls apart. A word on the kon: it is a measure of how fast the partners come together.

B1: affinity-matured clone 31 in huA33-BsAb format (bispecific antibody, human IgG1, kappa, N297A)
heavy: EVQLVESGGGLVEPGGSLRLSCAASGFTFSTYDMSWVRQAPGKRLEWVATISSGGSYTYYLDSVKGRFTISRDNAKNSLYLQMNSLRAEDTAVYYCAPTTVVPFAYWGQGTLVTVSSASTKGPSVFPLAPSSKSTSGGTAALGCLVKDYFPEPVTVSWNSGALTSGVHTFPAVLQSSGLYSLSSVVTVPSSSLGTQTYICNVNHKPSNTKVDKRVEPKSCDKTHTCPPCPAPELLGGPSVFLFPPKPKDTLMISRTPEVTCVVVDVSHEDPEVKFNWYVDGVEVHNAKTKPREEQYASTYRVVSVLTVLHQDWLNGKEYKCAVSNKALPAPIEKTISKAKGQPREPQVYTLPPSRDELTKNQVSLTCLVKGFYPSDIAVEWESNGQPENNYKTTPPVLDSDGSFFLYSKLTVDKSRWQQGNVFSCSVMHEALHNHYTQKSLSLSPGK
light: DIQMTQSQSSLSTSVGDRVTITCKASQNVRTVVAWYQQKPGKSPKTLIYLASNRHTGVPSRFSGSGSGTEFTLTISNVQPEDFADYFCLQHWSYPLTFGSGTKLEIKRTVAAPSVFIFPPSDEQLKSGTASVVCLLNNFYPREAKVQWKVDNALQSGNSQESVTEQDSKDSTYSLSSTLTLSKADYEKHKVYACEVTHQGLSSPVTKSFNRGECTSGGGGSGGGGSGGGGSQVQLVQSGGGVVQPGRSLRLSCKASGYTFTRYTMHWVRQAPGKCLEWIGYINPSRGYTNYNQKFKDRFTISRDNSKNTAFLQMDSLRPEDTGVYFCARYYDDHYSLDYWGQGTPVTVSSGGGGSGGGGSGGGGSGGGGSGGGGSGGGGSDIQMTQSPSSLSASVGDRVTITCSASSSVSYMNWYQQTPGKAPKRWIYDTSKLASGVPSRFSGSGSGTDYTFTISSLQPEDIATYYCQQWSSNPFTFGCGTKLQITR
As to B1, the “Fold difference/Parental” value in experiment [1] amounted to 4.3 fold. In experiment [2], the Kd came out at 0.0387 nM.

B2: affinity-matured clone 49 in huA33-BsAb format (bispecific antibody, human IgG1, kappa, N297A)
heavy: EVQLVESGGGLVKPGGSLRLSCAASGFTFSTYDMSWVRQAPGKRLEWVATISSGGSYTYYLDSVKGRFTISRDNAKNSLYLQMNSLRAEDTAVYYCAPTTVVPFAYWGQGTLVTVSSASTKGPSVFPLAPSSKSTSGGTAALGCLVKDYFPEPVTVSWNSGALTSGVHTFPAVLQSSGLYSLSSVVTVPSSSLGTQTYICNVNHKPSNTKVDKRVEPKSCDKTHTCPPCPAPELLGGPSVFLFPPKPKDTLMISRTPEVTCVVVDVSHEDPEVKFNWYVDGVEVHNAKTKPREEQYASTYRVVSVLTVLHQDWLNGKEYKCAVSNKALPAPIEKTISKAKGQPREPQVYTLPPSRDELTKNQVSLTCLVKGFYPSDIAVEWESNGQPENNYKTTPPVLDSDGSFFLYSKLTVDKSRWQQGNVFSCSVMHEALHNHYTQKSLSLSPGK
light: DIQMTQSQSSLSTSVGDRVTITCKASQNVRTLVAWYQQKPGKSPKTLIYLASNRHTGVPSRFSGSGSGTEFTLTISNVQPEDFADYFCLQHWSYPLTFGSGTKLEIKRTVAAPSVFIFPPSDEQLKSGTASVVCLLNNFYPREAKVQWKVDNALQSGNSQESVTEQDSKDSTYSLSSTLTLSKADYEKHKVYACEVTHQGLSSPVTKSFNRGECTSGGGGSGGGGSGGGGSQVQLVQSGGGVVQPGRSLRLSCKASGYTFTRYTMHWVRQAPGKCLEWIGYINPSRGYTNYNQKFKDRFTISRDNSKNTAFLQMDSLRPEDTGVYFCARYYDDHYSLDYWGQGTPVTVSSGGGGSGGGGSGGGGSGGGGSGGGGSGGGGSDIQMTQSPSSLSASVGDRVTITCSASSSVSYMNWYQQTPGKAPKRWIYDTSKLASGVPSRFSGSGSGTDYTFTISSLQPEDIATYYCQQWSSNPFTFGCGTKLQITR
B2: the “Fold difference/Parental” value in experiment [1] came out at 7.6 fold. Also, the Kd in experiment [2] is 0.022 nM.

B3: affinity-matured clone 48 in huA33-BsAb format (bispecific antibody, human IgG1, kappa, N297A)
heavy: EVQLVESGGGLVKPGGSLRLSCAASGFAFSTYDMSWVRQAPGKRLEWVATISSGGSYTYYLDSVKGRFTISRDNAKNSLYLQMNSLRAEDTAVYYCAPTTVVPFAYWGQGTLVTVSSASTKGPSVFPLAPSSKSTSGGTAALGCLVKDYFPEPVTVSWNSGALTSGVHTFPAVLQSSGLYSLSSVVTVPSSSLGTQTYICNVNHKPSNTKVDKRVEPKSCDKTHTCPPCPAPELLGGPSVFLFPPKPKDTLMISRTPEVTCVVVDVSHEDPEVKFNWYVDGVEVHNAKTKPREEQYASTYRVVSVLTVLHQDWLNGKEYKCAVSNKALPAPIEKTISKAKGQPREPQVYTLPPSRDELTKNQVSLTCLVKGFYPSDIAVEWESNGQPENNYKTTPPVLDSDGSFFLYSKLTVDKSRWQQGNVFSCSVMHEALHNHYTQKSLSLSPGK
light: DIQMTQSQSSLSTSVGDRVTITCKASQNVRTVVAWYQQKPGKSPKTLIYLASDRHTGVPSRFSGSGSGTEFTLTISNVQPEDFADYFCLQYWSYPLTFGSGTKLEIKRTVAAPSVFIFPPSDEQLKSGTASVVCLLNNFYPREAKVQWKVDNALQSGNSQESVTEQDSKDSTYSLSSTLTLSKADYEKHKVYACEVTHQGLSSPVTKSFNRGECTSGGGGSGGGGSGGGGSQVQLVQSGGGVVQPGRSLRLSCKASGYTFTRYTMHWVRQAPGKCLEWIGYINPSRGYTNYNQKFKDRFTISRDNSKNTAFLQMDSLRPEDTGVYFCARYYDDHYSLDYWGQGTPVTVSSGGGGSGGGGSGGGGSGGGGSGGGGSGGGGSDIQMTQSPSSLSASVGDRVTITCSASSSVSYMNWYQQTPGKAPKRWIYDTSKLASGVPSRFSGSGSGTDYTFTISSLQPEDIATYYCQQWSSNPFTFGCGTKLQITR
B3: in experiment [1], the “Fold difference/Parental” value is 51 fold. Besides, in experiment [2], the Kd came out at 0.00329 nM.

B4: affinity-matured clone 32 in huA33-BsAb format (bispecific antibody, human IgG1, kappa, N297A)
heavy: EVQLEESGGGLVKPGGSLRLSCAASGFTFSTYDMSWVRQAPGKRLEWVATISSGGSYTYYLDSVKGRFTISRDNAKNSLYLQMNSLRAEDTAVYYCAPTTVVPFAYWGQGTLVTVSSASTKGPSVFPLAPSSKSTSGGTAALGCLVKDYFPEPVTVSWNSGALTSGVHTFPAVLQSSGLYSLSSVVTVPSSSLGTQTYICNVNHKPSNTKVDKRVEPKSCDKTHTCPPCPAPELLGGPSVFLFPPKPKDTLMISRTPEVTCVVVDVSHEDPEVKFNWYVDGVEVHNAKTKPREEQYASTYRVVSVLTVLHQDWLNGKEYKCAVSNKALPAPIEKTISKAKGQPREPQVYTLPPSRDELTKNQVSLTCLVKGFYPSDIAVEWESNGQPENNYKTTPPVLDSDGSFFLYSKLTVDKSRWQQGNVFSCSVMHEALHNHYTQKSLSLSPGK
light: DIQMTQSQSSLSTSVGDRVTITCKASQNVRTVVAWYQQKPGKSPKTLIYLASNRHTGVPSRFSGSGSGTEFTLTISNVQPEDFADYFCLQYWSYPLTFGSGTKLEIKRTVAAPSVFIFPPSDEQLKSGTASVVCLLNNFYPREAKVQWKVDNALQSGNSQESVTEQDSKDSTYSLSSTLTLSKADYEKHKVYACEVTHQGLSSPVTKSFNRGECTSGGGGSGGGGSGGGGSQVQLVQSGGGVVQPGRSLRLSCKASGYTFTRYTMHWVRQAPGKCLEWIGYINPSRGYTNYNQKFKDRFTISRDNSKNTAFLQMDSLRPEDTGVYFCARYYDDHYSLDYWGQGTPVTVSSGGGGSGGGGSGGGGSGGGGSGGGGSGGGGSDIQMTQSPSSLSASVGDRVTITCSASSSVSYMNWYQQTPGKAPKRWIYDTSKLASGVPSRFSGSGSGTDYTFTISSLQPEDIATYYCQQWSSNPFTFGCGTKLQITR
In the case of B4, the “Fold difference/Parental” value in experiment [1] is 29.7 fold. Further, the Kd in experiment [2] is 0.00564 nM.

B5: affinity-matured clone 56 in huA33-BsAb format (bispecific antibody, human IgG1, kappa, N297A)
heavy: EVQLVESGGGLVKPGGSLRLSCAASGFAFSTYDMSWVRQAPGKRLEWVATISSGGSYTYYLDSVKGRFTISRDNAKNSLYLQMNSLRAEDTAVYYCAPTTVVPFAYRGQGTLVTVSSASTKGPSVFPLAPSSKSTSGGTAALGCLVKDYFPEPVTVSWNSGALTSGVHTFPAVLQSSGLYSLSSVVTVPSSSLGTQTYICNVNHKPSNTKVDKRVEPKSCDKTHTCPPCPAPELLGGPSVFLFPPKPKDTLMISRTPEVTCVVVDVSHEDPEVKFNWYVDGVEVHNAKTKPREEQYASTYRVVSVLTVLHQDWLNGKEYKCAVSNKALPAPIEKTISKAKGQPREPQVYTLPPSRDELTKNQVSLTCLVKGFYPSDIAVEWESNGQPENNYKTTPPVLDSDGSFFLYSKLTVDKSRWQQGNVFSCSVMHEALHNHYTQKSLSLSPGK
light: DIQMTQSQSSLSTSVGDRVTITCKASQNVRTLVAWYQQKPGKSPKTLIYLASNRHTGVPSRFSGSGSGTEFTLTISNVQPEDFADYFCLQYWSYPLTFGSGTKLEIKRTVAAPSVFIFPPSDEQLKSGTASVVCLLNNFYPREAKVQWKVDNALQSGNSQESVTEQDSKDSTYSLSSTLTLSKADYEKHKVYACEVTHQGLSSPVTKSFNRGECTSGGGGSGGGGSGGGGSQVQLVQSGGGVVQPGRSLRLSCKASGYTFTRYTMHWVRQAPGKCLEWIGYINPSRGYTNYNQKFKDRFTISRDNSKNTAFLQMDSLRPEDTGVYFCARYYDDHYSLDYWGQGTPVTVSSGGGGSGGGGSGGGGSGGGGSGGGGSGGGGSDIQMTQSPSSLSASVGDRVTITCSASSSVSYMNWYQQTPGKAPKRWIYDTSKLASGVPSRFSGSGSGTDYTFTISSLQPEDIATYYCQQWSSNPFTFGCGTKLQITR
In the case of B5, in experiment [1], the “Fold difference/Parental” value is 6.9 fold. The Kd in experiment [2] turned out to be 0.0243 nM.

B6: affinity-matured clone 53 in huA33-BsAb format (bispecific antibody, human IgG1, kappa, N297A)
heavy: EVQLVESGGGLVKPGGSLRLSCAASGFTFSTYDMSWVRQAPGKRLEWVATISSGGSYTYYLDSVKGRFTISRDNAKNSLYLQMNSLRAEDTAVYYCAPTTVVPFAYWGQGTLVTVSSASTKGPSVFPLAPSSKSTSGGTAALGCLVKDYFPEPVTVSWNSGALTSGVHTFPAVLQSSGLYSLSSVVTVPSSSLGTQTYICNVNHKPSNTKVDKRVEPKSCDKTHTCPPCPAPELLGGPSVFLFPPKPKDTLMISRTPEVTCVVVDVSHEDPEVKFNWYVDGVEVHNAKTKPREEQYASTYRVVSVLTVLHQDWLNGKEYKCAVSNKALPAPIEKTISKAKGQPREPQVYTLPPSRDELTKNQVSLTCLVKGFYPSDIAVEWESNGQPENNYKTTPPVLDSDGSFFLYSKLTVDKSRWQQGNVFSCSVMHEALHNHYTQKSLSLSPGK
light: DIQMTQSQSSLSTSVGDRVTITCKASQNVRTVVAWYQQKPGKSPKTLIYLASNRHTGVPSRFSGSGSGTEFTLTISNVQPEDFADYFCLQYWSYPLTFGSGTKLEIKRTVAAPSVFIFPPSDEQLKSGTASVVCLLNNFYPREAKVQWKVDNALQSGNSQESVTEQDSKDSTYSLSSTLTLSKADYEKHKVYACEVTHQGLSSPVTKSFNRGECTSGGGGSGGGGSGGGGSQVQLVQSGGGVVQPGRSLRLSCKASGYTFTRYTMHWVRQAPGKCLEWIGYINPSRGYTNYNQKFKDRFTISRDNSKNTAFLQMDSLRPEDTGVYFCARYYDDHYSLDYWGQGTPVTVSSGGGGSGGGGSGGGGSGGGGSGGGGSGGGGSDIQMTQSPSSLSASVGDRVTITCSASSSVSYMNWYQQTPGKAPKRWIYDTSKLASGVPSRFSGSGSGTDYTFTISSLQPEDIATYYCQQWSSNPFTFGCGTKLQITR
As for B6, in experiment [1], the “Fold difference/Parental” value was determined as 9.6 fold. In experiment [2], the Kd was found to be 0.0175 nM.

B7: affinity-matured clone 57 in huA33-BsAb format (bispecific antibody, human IgG1, kappa, N297A)
heavy: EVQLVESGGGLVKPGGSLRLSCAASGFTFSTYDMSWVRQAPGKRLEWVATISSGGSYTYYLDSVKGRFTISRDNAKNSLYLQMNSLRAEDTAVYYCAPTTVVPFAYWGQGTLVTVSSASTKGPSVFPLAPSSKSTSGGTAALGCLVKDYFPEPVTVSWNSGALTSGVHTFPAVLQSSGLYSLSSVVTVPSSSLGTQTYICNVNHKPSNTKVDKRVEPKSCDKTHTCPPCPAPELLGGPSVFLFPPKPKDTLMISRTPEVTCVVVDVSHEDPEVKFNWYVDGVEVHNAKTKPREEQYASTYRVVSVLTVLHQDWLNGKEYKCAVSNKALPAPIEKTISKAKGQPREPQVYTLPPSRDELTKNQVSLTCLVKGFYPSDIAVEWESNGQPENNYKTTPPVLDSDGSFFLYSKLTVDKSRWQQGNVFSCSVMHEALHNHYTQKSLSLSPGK
light: DIQMTQSQSSLSTSVGDSVTITCKASQNVRTVVAWYQQKPGKSPKTLIYLASNRHTGVPSRFSGSGSGTEFTLTISNVQPEDVADYFCLQYWSYPLTFGSGTKLEIKRTVAAPSVFIFPPSDEQLKSGTASVVCLLNNFYPREAKVQWKVDNALQSGNSQESVTEQDSKDSTYSLSSTLTLSKADYEKHKVYACEVTHQGLSSPVTKSFNRGECTSGGGGSGGGGSGGGGSQVQLVQSGGGVVQPGRSLRLSCKASGYTFTRYTMHWVRQAPGKCLEWIGYINPSRGYTNYNQKFKDRFTISRDNSKNTAFLQMDSLRPEDTGVYFCARYYDDHYSLDYWGQGTPVTVSSGGGGSGGGGSGGGGSGGGGSGGGGSGGGGSDIQMTQSPSSLSASVGDRVTITCSASSSVSYMNWYQQTPGKAPKRWIYDTSKLASGVPSRFSGSGSGTDYTFTISSLQPEDIATYYCQQWSSNPFTFGCGTKLQITR
Turning to B7, the “Fold difference/Parental” value in experiment [1] amounted to 10.7 fold. The Kd in experiment [2] stood at 0.0156 nM.

B8: chimeric chA33-IgG1 (antibody, V domains shown)
VH: EVKLVESGGGLVKPGGSLKLSCAASGFAFSTYDMSWVRQTPEKRLEWVATISSGGSYTYYLDSVKGRFTISRDSARNTLYLQMSSLRSEDTALYYCAPTTVVPFAYWGQGTLVTVSA
VL: DIVMTQSQKFMSTSVGDRVSITCKASQNVRTVVAWYQQKPGQSPKTLIYLASNRHTGVPDRFTGSGSGTDFTLTISNVQSEDLADYFCLQHWSYPLTFGSGTKLEVKR
notes: Chimeric antibody with murine A33 variable domains and a human IgG1 constant region; also called chimeric A33; 3A3-chA33
Regarding B8, in experiment [3], the Kd came to 0.31 nM, the koff came to 0.000628 s⁻¹ and the kon worked out at 2.03e+06 M⁻¹ s⁻¹.

The record behind these values is patent US20200291112A1 (Memorial Sloan Kettering, published 2020).
